Results published in patent US20200247855A1, “THERAPY AND DIAGNOSTICS” (OXFORD UNIVERSITY INNOVATION LIMITED, priority 2017, published 2020).

T1: CCL25_HUMAN (Homo sapiens, UniProt O15444)
T1 sequence (O15444 24-150): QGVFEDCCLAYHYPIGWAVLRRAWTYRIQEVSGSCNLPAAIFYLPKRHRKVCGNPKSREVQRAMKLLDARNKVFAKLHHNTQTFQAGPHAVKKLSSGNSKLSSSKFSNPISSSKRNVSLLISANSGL

T2: CCL5_HUMAN (Homo sapiens, UniProt P13501)
T2 sequence (P13501 24-91): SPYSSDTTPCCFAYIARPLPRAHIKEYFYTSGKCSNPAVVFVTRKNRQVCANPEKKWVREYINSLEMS

T3: CCL18_HUMAN (Homo sapiens, UniProt P55774)
T3 sequence (P55774 21-89): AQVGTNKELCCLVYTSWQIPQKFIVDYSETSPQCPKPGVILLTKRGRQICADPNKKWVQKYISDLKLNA

T4: CCL3_HUMAN (Homo sapiens, UniProt P10147)
T4 sequence (P10147 24-92): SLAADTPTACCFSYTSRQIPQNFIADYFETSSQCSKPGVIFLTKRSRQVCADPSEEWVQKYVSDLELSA

T5: CCL17_HUMAN (Homo sapiens, UniProt Q92583)
T5 sequence (Q92583 24-94): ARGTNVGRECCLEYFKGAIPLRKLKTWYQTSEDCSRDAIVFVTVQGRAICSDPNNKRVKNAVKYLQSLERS

T6: CCL8_HUMAN (Homo sapiens, UniProt P80075)
T6 sequence (P80075 24-99): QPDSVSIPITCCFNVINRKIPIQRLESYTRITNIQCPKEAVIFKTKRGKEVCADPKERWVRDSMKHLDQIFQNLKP

T7: CXCL8_HUMAN (Homo sapiens, UniProt P10145)
T7 sequence (P10145 21-99): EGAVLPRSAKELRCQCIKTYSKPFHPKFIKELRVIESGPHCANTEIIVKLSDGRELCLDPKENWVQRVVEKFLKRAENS


What was measured:
Assay in all cases: Yeast surface display (YSD) FACS binding
[1] = molecular target: T1, CCL25_HUMAN
Method in brief: (§1)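 Yeast clones displaying tick peptides were re-tested by FACS with labelled chemokine. Binding = % of peptide-expressing yeast above a background threshold set with streptavidin-Alexa647 alone; the mean percent shift was used where several clones were isolated. Confirmed binding ("YES") required >3-fold over background mean fluorescence intensity.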

[2] = molecular target: T2, CCL5_HUMAN
Method in brief: as §1

[3] = molecular target: CCL11_HUMAN (Homo sapiens, UniProt P51671)
Sequence of CCL11_HUMAN (P51671 24-97): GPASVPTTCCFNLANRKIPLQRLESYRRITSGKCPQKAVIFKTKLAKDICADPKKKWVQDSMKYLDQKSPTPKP
Method in brief: as §1

[4] = molecular target: CXCL12_HUMAN (Homo sapiens, UniProt P48061); conditions: yeast surface display
Sequence of CXCL12_HUMAN (P48061 22-93): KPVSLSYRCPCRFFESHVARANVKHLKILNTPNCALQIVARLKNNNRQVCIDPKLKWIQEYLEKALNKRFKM
Method in brief: (§2)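 Yeast clones displaying tick peptides were re-tested by FACS with labelled chemokine detected by streptavidin-Alexa conjugate. Binding was scored as % of peptide-expressing cells above a background set with streptavidin-Alexa alone, averaged over independent clones. In the screen tables, >3-fold over background mean fluorescence intensity was scored as binding.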

[5] = molecular target: T3, CCL18_HUMAN
Method in brief: as §1

[6] = molecular target: CCL20_HUMAN (Homo sapiens, UniProt P78556)
Sequence of CCL20_HUMAN (P78556 27-96): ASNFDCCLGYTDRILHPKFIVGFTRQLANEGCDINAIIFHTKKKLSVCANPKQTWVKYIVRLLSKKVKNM
Method in brief: as §1

[7] = molecular target: T4, CCL3_HUMAN
Method in brief: as §1

[8] = molecular target: T5, CCL17_HUMAN
Method in brief: as §1

[9] = molecular target: T6, CCL8_HUMAN
Method in brief: as §1

[10] = molecular target: T7, CXCL8_HUMAN; set-up: label (chemical); conditions: yeast surface display
Method in brief: as §2

Row | Molecule | Binding to CCL25_HUMAN, YSD [1] | Binding to CCL5_HUMAN, YSD [2] | Binding to CCL11_HUMAN, YSD [3] | Binding to CXCL12_HUMAN, YSD [4] | Binding to CCL18_HUMAN, YSD [5] | Binding to CCL20_HUMAN, YSD [6] | Binding to CCL3_HUMAN, YSD [7] | Binding to CCL17_HUMAN, YSD [8] | Binding to CCL8_HUMAN, YSD [9] | Binding to CXCL8_HUMAN, YSD [10]
1 | P1220_IXORI: tick CKBP, Ixodes ricinus (protein, listed as Ixodes ricinus) GSTPSAMKTEDILKVLGSTSSLENHTDSSHCRYQELLDITKNIENAGFLAINCQRSCPNGKQTMVEGYGCIFKIKHATKRGKVKVKEGSCRKGACVRGSTRPPWRLLVLLGESKEEEFL | YES (An arbitrary threshold of >3 fold over background mean fluorescence intensity was chosen to describe confirmed re-tests. Where binding was detected data are indicated as “YES”) |  |  |  |  |  |  |  |  | 
2 | P1215_AMBPA: tick CKBP, Amblyomma parvum (protein, listed as Amblyomma parvum) KTDTKNAAGELPPKVVIPGCEDPATTKAPLPDEPPYYGITIDKDGCQRKVLGSSQRQQRKVQNGRKLDGKKRGRRPVFVDLELTVDCKRKCNGTYSQLPDGENCLVSDGYPYGRWGTIKGGCYQGNCSSGQCHRGEKKVNCYLPKNITNDVPKSLNLAE |  | YES (An arbitrary threshold of >3 fold over background mean fluorescence intensity was chosen to describe confirmed re-tests. Where binding was detected data are indicated as “YES”) | YES (An arbitrary threshold of >3 fold over background mean fluorescence intensity was chosen to describe confirmed re-tests. Where binding was detected data are indicated as “YES”) | YES (An arbitrary threshold of >3 fold over background mean fluorescence intensity was chosen to describe confirmed re-tests. Where binding was detected data are indicated as “YES”) | YES (An arbitrary threshold of >3 fold over background mean fluorescence intensity was chosen to describe confirmed re-tests. Where binding was detected data are indicated as “YES”) |  |  |  |  | 
3 | P1030_AMBPA: tick CKBP, Amblyomma parvum (protein, listed as Amblyomma parvum) GPPSIPGNESIPGCGDAGTTTAPEDNPKHYGTLTDKKGCTLPIIGTWMTAVDHQHLQGTRGERRGPTGKVNLPASCRKNCHGRQEILRDGIPCRKVVGNPKGSKKHLKSGCLRGKCLAGQCVNDGRRISCYVPRNITDTEPTPGLLAE |  | YES (An arbitrary threshold of >3 fold over background mean fluorescence intensity was chosen to describe confirmed re-tests. Where binding was detected data are indicated as “YES”) | YES (An arbitrary threshold of >3 fold over background mean fluorescence intensity was chosen to describe confirmed re-tests. Where binding was detected data are indicated as “YES”) |  |  | YES (An arbitrary threshold of >3 fold over background mean fluorescence intensity was chosen to describe confirmed re-tests. Where binding was detected data are indicated as “YES”) | YES (An arbitrary threshold of >3 fold over background mean fluorescence intensity was chosen to describe confirmed re-tests. Where binding was detected data are indicated as “YES”) | YES (An arbitrary threshold of >3 fold over background mean fluorescence intensity was chosen to describe confirmed re-tests. Where binding was detected data are indicated as “YES”) | YES (An arbitrary threshold of >3 fold over background mean fluorescence intensity was chosen to describe confirmed re-tests. Where binding was detected data are indicated as “YES”) | YES (An arbitrary threshold of >3 fold over background mean fluorescence intensity was chosen to describe confirmed re-tests. Where binding was detected data are indicated as “YES”)
4 | P1011_AMBTR: tick CKBP, Amblyomma triste (protein, Amblyomma triste) EKDTPKNIPGCEDAGTTAAPPADNPKHYAVYTDKNGCTFKVIGTWMTKEDHRRLPVSLRRVRASSGRVKLPASCQKICKHSVKKFPEGTPCRLVTRDPIKGKNHIKNGCIRGYCSSGVCVSDNRSISCYVLPNNTELTSPSGSFAE | YES (An arbitrary threshold of >3 fold over background mean fluorescence intensity was chosen to describe confirmed re-tests. Where binding was detected data are indicated as “YES”) | YES (An arbitrary threshold of >3 fold over background mean fluorescence intensity was chosen to describe confirmed re-tests. Where binding was detected data are indicated as “YES”) | YES (An arbitrary threshold of >3 fold over background mean fluorescence intensity was chosen to describe confirmed re-tests. Where binding was detected data are indicated as “YES”) |  | YES (An arbitrary threshold of >3 fold over background mean fluorescence intensity was chosen to describe confirmed re-tests. Where binding was detected data are indicated as “YES”) |  |  | YES (An arbitrary threshold of >3 fold over background mean fluorescence intensity was chosen to describe confirmed re-tests. Where binding was detected data are indicated as “YES”) |  | 
5 | P698_RHISA: tick CKBP, Rhipicephalus sanguineus (protein, listed as Rhipicephalus sanguineus) NEDDSSDYYDASPMNCSSMSVNSTMGWLSMNCTMSCNGTTFPLSNSTHCFHSYTNLTVQSRMETMTYNCSVGTCSNGTCVENGTTTTCW |  | YES (An arbitrary threshold of >3 fold over background mean fluorescence intensity was chosen to describe confirmed re-tests. Where binding was detected data are indicated as “YES”) |  |  |  |  |  |  | YES (An arbitrary threshold of >3 fold over background mean fluorescence intensity was chosen to describe confirmed re-tests. Where binding was detected data are indicated as “YES”) | 
